Data from patent US20220033501A1 (SHANGHAI PHARMAEXPLORER, published 2022).

T1: monkey TIM-3 on CHOK1 stable cell line (CHOK1-cTIM-3) (monkey)
T1 chain: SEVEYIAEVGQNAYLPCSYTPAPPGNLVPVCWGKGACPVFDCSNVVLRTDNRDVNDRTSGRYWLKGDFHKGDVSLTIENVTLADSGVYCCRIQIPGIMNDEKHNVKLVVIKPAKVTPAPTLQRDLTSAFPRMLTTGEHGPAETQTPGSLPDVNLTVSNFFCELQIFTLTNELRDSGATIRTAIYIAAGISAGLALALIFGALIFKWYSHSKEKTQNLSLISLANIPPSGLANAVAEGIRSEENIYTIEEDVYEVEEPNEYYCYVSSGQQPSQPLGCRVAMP

T2: murine TIM-3 protein with hFc tag (mTIM-3-hFc protein) (mouse; human, UniProt Q8VIM0 29-191)
T2 construct: Made in HEK293 cells; also called mouse TIM-3 extracellular domain protein; not shown: human IgG Fc fragment (hFc) of the pCpC vector
T2 chain: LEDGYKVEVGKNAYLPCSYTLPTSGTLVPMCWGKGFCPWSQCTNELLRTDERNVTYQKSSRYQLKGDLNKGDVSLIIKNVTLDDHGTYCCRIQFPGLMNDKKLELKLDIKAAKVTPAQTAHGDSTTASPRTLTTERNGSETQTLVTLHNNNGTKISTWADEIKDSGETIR

T3: TIM-3 protein on human peripheral blood mononuclear lymphocytes (PBMC) (human, UniProt Q8TDQ0 22-301)
T3 sequence: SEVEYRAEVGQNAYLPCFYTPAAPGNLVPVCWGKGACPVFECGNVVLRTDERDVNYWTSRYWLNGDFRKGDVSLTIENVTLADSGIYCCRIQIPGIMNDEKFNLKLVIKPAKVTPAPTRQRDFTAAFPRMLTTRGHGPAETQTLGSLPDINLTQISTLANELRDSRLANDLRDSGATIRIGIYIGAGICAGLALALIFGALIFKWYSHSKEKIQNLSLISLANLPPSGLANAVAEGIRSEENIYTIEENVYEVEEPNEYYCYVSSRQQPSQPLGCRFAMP


Assays:
[1] = biological target: T1, monkey TIM-3 on CHOK1 stable cell line …; test: FACS, CHOK1-cTIM-3 cells, 0.32 nM antibody
Text: (§1) The pIRES plasmid containing the full-length nucleotide sequence encoding human TIM-3 as described in Example 1 was transfected into CHOK1 cell line to obtain a CHOK1 stable cell line containing human TIM-3 (herein referred to as CHOK1-hTIM-3 stable cell line). The pIRES plasmid containing the full-length gene of monkey TIM-3 was transfected into CHOK1 cell line to construct a CHOK1 stable cell line containing monkey TIM-3 (herein referred to as CHOK1-cTIM-3 stable cell line). The CHOK1-hTIM-3 stable cell line and CHOK1-cTIM-3 stable cell line were expanded to a confluence of 90% in a T-75 cell culture flask. The medium was aspirated, and the cells were washed with HBSS (Hanks' Balanced Salt Solution) 1-2 times, and then treated with an enzyme-free cell dissociation solution (Versene solution: Life technology) and the cells were collected. The cells were washed with HBSS buffer for 1-2 times. After counted, the cells were diluted with HBSS to 1-2×10⁶ cells per ml, added with 1% goat serum blocking solution, incubated on ice for 20-30 minutes, and then washed with HBSS by centrifugation 2 times. The collected cells were suspended in the FACS buffer (HBSS+1% BSA) to 2×10⁶ cells/ml, added as 100 microliters per well to a 96-well FACS reaction plate, added with 100 microliters per well of the antibody sample to be tested, incubated on ice for 1-2 hours. The plate was washed twice with the FACS buffer by centrifugation, added with 100 microliters of fluorescent (Alexa 488)-labeled secondary antibodies per well, and incubated on ice for 0.5-1.0 hours. The plate was washed 2-3 times with FACS buffer by centrifugation, added with 100 μl fixative solution (4% Paraformaldehyde) per well to suspend the cells. 5-10 minutes later, it was washed 1-2 times with FACS buffer by centrifugation. The cells were suspended with 100 microliters of FACS buffer, FACS (FACSCalibur, BD) was used for detection and the results were analyzed. The results are shown in FIGS. 7 and 8, Tables 7 and 8, wherein the IgG control is rat IgG, and the data in the table are the average fluorescence intensity values of the cell populations measured by MFI.

[2] = biological target: T1, monkey TIM-3 on CHOK1 stable cell line …; test: FACS, CHOK1-cTIM-3 cells, 0.064 nM antibody
Text: as §1

[3] = biological target: T1, monkey TIM-3 on CHOK1 stable cell line …; test: FACS, CHOK1-cTIM-3 cells, 40 nM antibody
Text: as §1

[4] = biological target: T1, monkey TIM-3 on CHOK1 stable cell line …; test: FACS, CHOK1-cTIM-3 cells, 8 nM antibody
Text: as §1

[5] = biological target: T1, monkey TIM-3 on CHOK1 stable cell line …; test: FACS, CHOK1-cTIM-3 cells, 200 nM antibody
Text: as §1

[6] = biological target: T1, monkey TIM-3 on CHOK1 stable cell line …; test: FACS, CHOK1-cTIM-3 cells, 0.013 nM antibody
Text: as §1

[7] = biological target: T1, monkey TIM-3 on CHOK1 stable cell line …; test: FACS, CHOK1-cTIM-3 cells, 0 nM antibody
Text: as §1

[8] = biological target: T1, monkey TIM-3 on CHOK1 stable cell line …; test: FACS, CHOK1-cTIM-3 cells, 1.6 nM antibody
Text: as §1

[9] = biological target: T2, murine TIM-3 protein with hFc tag …; test: ELISA, coated mTIM-3-hFc
[10] = biological target: T3, TIM-3 protein on human peripheral blood …; test: cell-based or functional assay

Binder | Mean fluorescence intensity [1] | Mean fluorescence intensity [2] | Mean fluorescence intensity [3] | Mean fluorescence intensity [4] | Mean fluorescence intensity [5] | Mean fluorescence intensity [6] | Mean fluorescence intensity [7] | Mean fluorescence intensity [8] | binding result [9] | IFN production; antibody 0.001 µg/ml (4th head as printed), N = 1 [10] [pg/mL] | IFN production; antibody 0.001 µg/ml (4th head as printed), N = 2 [10] [pg/mL] | IFN production; antibody 0.001 µg/ml (5th head as printed), N = 1 [10] [pg/mL] | IFN production; antibody 0.001 µg/ml (5th head as printed), N = 2 [10] [pg/mL] | IFN production; antibody 0.1 µg/ml, N = 1 [10] [pg/mL] | IFN production; antibody 0.1 µg/ml, N = 2 [10] [pg/mL] | IFN production; antibody 1 µg/ml, N = 1 [10] [pg/mL] | IFN production; antibody 1 µg/ml, N = 2 [10] [pg/mL] | IFN production; antibody 10 µg/ml, N = 1 [10] [pg/mL] | IFN production; antibody 10 µg/ml, N = 2 [10] [pg/mL]
18D2H2 TIM-3 antibody purified from hybridoma supernatant (chimeric antibody of Example 2) (antibody, V domains shown) VH: EVQLVESGGDLVQPGGSLRLSCAASGFTFSTYWMTWVRQAPGRGLEWVANIKQDGSAKYYVDSVKGRFTLSRDDAKNSLYLQMNSLRAEDTAVYYCARGSNWFDYWGQGTLVTVSS VL: ETVMTQSPATLSVSPGERATLSCRANQNVYSNLAWYQQKPGQAPRLLIYDASTRATGFPARFSGSGSGTEFTLTISSLQSEDFAVYYCQQYNNWPLTFGGGTKVEIK | 14.4 | 6.9 | 186 | 92.2 | 203 | 4.3 | 3.2 | 35.8 | – | – | – | – | – | – | – | – | – | – | –
134H3G6 fully human TIM-3 antibody (human IgG4, kappa) (antibody, V domains shown) VH: EVQLVESGGGLVQPGGSLRLSCAASGFTFSNSWMTWVRQAPGKGLEWVANIKQAGTEKYYVDSVKGRFTISRDNAKNSLYLQMNSLRAEDTAVYYCNSGSNYFDYWGQGTLVTVSS VL: EIVMTQSPATLSVSPGERATLSCRARQNFYSNLAWYQQKPGQAPRLLIYGASTRATGIPARFSGSGSGTEFTLTISSLQSEDFAVYYCQQYNNWPLTFGGGTKVEIK | – | – | – | – | – | – | – | – | no binding (tested: 66.667 nM) | – | – | – | – | – | – | – | – | – | –
57F4E5 TIM-3 antibody purified from hybridoma supernatant (chimeric antibody of Example 2) (antibody, V domains shown) VH: EVQLVESGGGLVQPGGSLRLSCAASGFTFSSYWMSWVRQAPGKGLEWVANIKQDGSEKYYVDSVKGRFTISRDSAKNSLYLQMNSLRAEDTAMYFCARDSNFFDYWGQGTLVTVSS VL: ETVMTQSPATLSVSPGERATLSCRASQSVSSNLAWYQRKPGQAPRLLIYFSSTRATGIPARFSGSGSGTEFTLTISSLQSEDFAVYYCQQYNNWPLTFGGGTKVEIK | 185 | 59.6 | 699 | 704 | 675 | 22.2 | 3.2 | 460 | – | – | – | – | – | – | – | – | – | – | –
215A8F2 TIM-3 antibody purified from hybridoma supernatant (chimeric antibody of Example 2) (antibody, V domains shown) VH: QVQLQQWGAGLLKPSETLSLTCTVYGGSFSGYYWNWIRQPPGKGLEWLGEINHSGSTNYNPSLKRRVTISVDTSKNQFSLKLSSVTAADTAVYYCARVYYYGPFDFWGQGTLVTVSS VL: not shown | 108 | 34.7 | 976 | 733 | 961 | 13.6 | 3.2 | 330 | – | 782 | 753 | 791 | 741 | 840 | 901 | 1020 | 1070 | 943 | 1070
7A4F10 TIM-3 antibody purified from hybridoma supernatant (chimeric antibody of Example 2) (antibody, V domains shown) VH: EVQLLESGGGLVQPGGSLRLSCAASGFTFRTHLISWVRQAPGKGLEWVAAITGSGGSTYYADSVKGRFIISRDNSKNTLFLQMNSLRAEDTAVYYCAKDGGSGSYDDFWGQGTLVTVSS VL: ETVLTQSPVTLSLSPGERATLSCRASQSVGSYLAWYQQKPGQAPRLLIYDASNRATGIPARFSGSGSGTDFTLTISSLEPEDFAVYYCQQRSNWPPTFGQGTKVEIK | 11.3 | 5.9 | 163 | 90 | 147 | 4.1 | 3.2 | 29.1 | – | 672 | 719 | 666 | 756 | 758 | 873 | 1010 | 1160 | 848 | 1010

Continued, values first:

Mean fluorescence intensity [1] | Mean fluorescence intensity [2] | Mean fluorescence intensity [3] | Mean fluorescence intensity [4] | Mean fluorescence intensity [5] | Mean fluorescence intensity [6] | Mean fluorescence intensity [7] | Mean fluorescence intensity [8] | binding result [9] | IFN production; antibody 0.001 µg/ml (4th head as printed), N = 1 [10] [pg/mL] | IFN production; antibody 0.001 µg/ml (4th head as printed), N = 2 [10] [pg/mL] | IFN production; antibody 0.001 µg/ml (5th head as printed), N = 1 [10] [pg/mL] | IFN production; antibody 0.001 µg/ml (5th head as printed), N = 2 [10] [pg/mL] | IFN production; antibody 0.1 µg/ml, N = 1 [10] [pg/mL] | IFN production; antibody 0.1 µg/ml, N = 2 [10] [pg/mL] | IFN production; antibody 1 µg/ml, N = 1 [10] [pg/mL] | IFN production; antibody 1 µg/ml, N = 2 [10] [pg/mL] | IFN production; antibody 10 µg/ml, N = 1 [10] [pg/mL] | IFN production; antibody 10 µg/ml, N = 2 [10] [pg/mL] | Binder
– | – | – | – | – | – | – | – | no binding (tested: 66.667 nM) | – | – | – | – | – | – | – | – | – | – | 18D2H2 fully human TIM-3 antibody (human IgG4, kappa) (antibody, V domains shown) VH: EVQLVESGGDLVQPGGSLRLSCAASGFTFSTYWMTWVRQAPGRGLEWVANIKQDGSAKYYVDSVKGRFTLSRDDAKNSLYLQMNSLRAEDTAVYYCARGSNWFDYWGQGTLVTVSS VL: ETVMTQSPATLSVSPGERATLSCRANQNVYSNLAWYQQKPGQAPRLLIYDASTRATGFPARFSGSGSGTEFTLTISSLQSEDFAVYYCQQYNNWPLTFGGGTKVEIK
– | – | – | – | – | – | – | – | no binding (tested: 66.667 nM) | – | – | – | – | – | – | – | – | – | – | 215A8F2 fully human TIM-3 antibody (human IgG4, kappa) (antibody, V domains shown) VH: QVQLQQWGAGLLKPSETLSLTCTVYGGSFSGYYWNWIRQPPGKGLEWLGEINHSGSTNYNPSLKRRVTISVDTSKNQFSLKLSSVTAADTAVYYCARVYYYGPFDFWGQGTLVTVSS VL: not shown
– | – | – | – | – | – | – | – | no binding (tested: 66.667 nM) | – | – | – | – | – | – | – | – | – | – | 7A4F10 fully human TIM-3 antibody (human IgG4, kappa) (antibody, V domains shown) VH: EVQLLESGGGLVQPGGSLRLSCAASGFTFRTHLISWVRQAPGKGLEWVAAITGSGGSTYYADSVKGRFIISRDNSKNTLFLQMNSLRAEDTAVYYCAKDGGSGSYDDFWGQGTLVTVSS VL: ETVLTQSPVTLSLSPGERATLSCRASQSVGSYLAWYQQKPGQAPRLLIYDASNRATGIPARFSGSGSGTDFTLTISSLEPEDFAVYYCQQRSNWPPTFGQGTKVEIK
